Experimental data from patent US20230380451A1, “MEANS AND METHODS TO DETOXIFY MYCOTOXINS” (priority 2020, published 2023).

How the values were obtained:
[1] = Storage stability at different pH values, residual DON transformation activity; format: biochemical; details: for Relative DON-transformation activity: storage at 30° C.
Protocol: (§1) To determine the transformation of DON to epi-THS by Akr I-III, described herein, the following assay was performed. An assay buffer was prepared containing 40 ppm DON, 1 mM NADPH in Teorell Stenhagen (TS) buffer, pH 6.0 (Östling and Virtama, Acta Physiologica Scandinavica, 1946, 11:4, 289-293). Tubes containing the assay buffer were transferred in a heating block at 30° C. The reaction was started by addition of Akr I-III to a final concentration of 200 nM in a final reaction volume of 200 μL. Samples were taken before reaction start, and 2, 5, 10, 15 and 20 min after reaction start. DON transformation reactions in these samples were stopped by mixing with absolute methanol at a 1:2 ratio, followed by a 1:100 dilution with 40% methanol. The concentrations of DON and epi-THS in the samples were determined with liquid chromatography-mass spectrometry (LC-MS) on a Sciex 5500 triple quadrupole mass spectrometer coupled to Agilent 1290 series UHPLC system, using the following MS parameters: Acquisition duration: 4 min; Scan Type: MRM (MRM); Polarity: Negative; Ion Source: Turbo Spray.
The storage stability of Akr I-III at different pH values was tested by incubating 1 μM enzyme in TS buffer solutions with a pH of 3.0-10.0 for 4 h at 30° C. in standard 1.5 ml Eppendorf tubes. Every hour, a DON transformation assay was conducted as described in Example 3. The starting activity at time 0 min was set to 100% and the relative residual activities were determined throughout the incubation. For the DON transformation assays, 80 μl of the storage solution were added to an assay reaction with a final volume of 400 μl, which corresponds to a 1:5 dilution of the storage solution. Akr I retained more than 93% activity during 4 hours at 30° C. from pH 4.0-10.0. Akr II retained 30% to 93% activity during 4 hours at 30° C. from pH […] retained 27% to 85% activity during 4 hours at 30° C. from pH 4.0-9.0. Akr I-III retained more than 40% of their activity for 4 hours at 30° C. from pH 4.0 to pH 8.0.

[2] = Storage stability in storage buffer at different temperatures, residual DON transformation activity; format: biochemical; details: for Relative DON transformation activity: storage buffer
Protocol: as §1
The storage stability of Akr I-III was tested by incubation of 5 μM enzyme solutions in storage buffer (50 mM Tris pH 9.0, 0.5M NaCl, 50% Glycerol), for 60 min in a thermocycler (Mastercycler, Eppendorf) set to gradient mode from 30° C. to 50° C. Throughout the incubation, samples were removed and placed on ice until DON transformation assays were performed as described in Example 3 to determine enzyme activities. The starting activity at time 0 min was set to 100% and the relative residual activities were determined throughout the incubation. Akr I retained more than 33% activity during 60 min in pH 6 at temperatures from 29.9° C. to 46.0° C. Akr III retained 15% to 90% activity during 20 min in pH 6 at temperatures from 29.9° C. to 40.7° C.

B1: Akr I: artificial amino acid sequence, variant of a wild type aldo-keto reductase (protein)
chain: MRTTEISQGLKVSNLCIGAGPLGGMPTAFGYDVSEERGIATVQAVFDSPINFMDTSSEYGDSEVRIGKVIREGRMPKGFVIATKADAEGDGTARRGDFSAKQVRASFELSLERLGLTHIDVYFLHDPEKFPFEHVMARGGAMEELLRLKDEGLVGLVGVAGGDVVEMARYVDTGNLDILLNYGRYTLLDRSADSLIDKASDAGMAFLNAGPYASGLLAAPRGGSAWYQYAPPNADALQAVDQLHELCESFDVSLRSVALQFSMRDPRITSTVVGLSRPERVRALLDDAAAEIPAELWDQLPAPLNLPWNSLA
modifications: ArkI
[1]; during 4 hours at 30° C. from pH 4.0-10.0
  retained activity: more than 93%
[1]; pH 3.0, 0 h (starting activity set to 100%)
  Relative DON-transformation activity: 100.0%
[1]; pH 3.0, 1 h
  Relative DON-transformation activity: 0.0%
[1]; pH 3.0, 2 h
  Relative DON-transformation activity: 0.0%
[1]; pH 3.0, 3 h
  Relative DON-transformation activity: 0.0%
[1]; pH 3.0, 4 h
  Relative DON-transformation activity: 0.0%
[1]; pH 4.0, 0 h (starting activity set to 100%)
  Relative DON-transformation activity: 100.0%
[1]; pH 4.0, 1 h
  Relative DON-transformation activity: 100.6%
[1]; pH 4.0, 2 h
  Relative DON-transformation activity: 102.8%
[1]; pH 4.0, 3 h
  Relative DON-transformation activity: 101.5%
[1]; pH 4.0, 4 h
  Relative DON-transformation activity: 93.8%
[1]; pH 5.0, 0 h (starting activity set to 100%)
  Relative DON-transformation activity: 100.0%
[1]; pH 5.0, 1 h
  Relative DON-transformation activity: 101.0%
[1]; pH 5.0, 2 h
  Relative DON-transformation activity: 101.6%
[1]; pH 5.0, 3 h
  Relative DON-transformation activity: 100.8%
[1]; pH 5.0, 4 h
  Relative DON-transformation activity: 97.9%
[1]; pH 6.0, 0 h (starting activity set to 100%)
  Relative DON-transformation activity: 100.0%
[1]; pH 6.0, 1 h
  Relative DON-transformation activity: 100.6%
[1]; pH 6.0, 2 h
  Relative DON-transformation activity: 101.9%
[1]; pH 6.0, 3 h
  Relative DON-transformation activity: 101.1%
[1]; pH 6.0, 4 h
  Relative DON-transformation activity: 100.7%
[1]; pH 7.0.0, 0 h (starting activity set to 100%)
  Relative DON-transformation activity: 100.0%
[1]; pH 7.0.0, 1 h
  Relative DON-transformation activity: 99.6%
[1]; pH 7.0.0, 2 h
  Relative DON-transformation activity: 101.4%
[1]; pH 7.0.0, 3 h
  Relative DON-transformation activity: 99.7%
[1]; pH 7.0.0, 4 h
  Relative DON-transformation activity: 96.1%
[1]; pH 8.0, 0 h (starting activity set to 100%)
  Relative DON-transformation activity: 100.0%
[1]; pH 8.0, 1 h
  Relative DON-transformation activity: 101.5%
[1]; pH 8.0, 2 h
  Relative DON-transformation activity: 102.4%
[1]; pH 8.0, 3 h
  Relative DON-transformation activity: 101.1%
[1]; pH 8.0, 4 h
  Relative DON-transformation activity: 101.2%
[1]; pH 9.0.0, 0 h (starting activity set to 100%)
  Relative DON-transformation activity: 100.0%
[1]; pH 9.0.0, 1 h
  Relative DON-transformation activity: 100.9%
[1]; pH 9.0.0, 2 h
  Relative DON-transformation activity: 101.0%
[1]; pH 9.0.0, 3 h
  Relative DON-transformation activity: 100.8%
[1]; pH 9.0.0, 4 h
  Relative DON-transformation activity: 96.6%
[1]; pH 10.0, 0 h (starting activity set to 100%)
  Relative DON-transformation activity: 100.0%
[1]; pH 10.0, 1 h
  Relative DON-transformation activity: 100.5%
[1]; pH 10.0, 2 h
  Relative DON-transformation activity: 101.4%
[1]; pH 10.0, 3 h
  Relative DON-transformation activity: 99.8%
[1]; pH 10.0, 4 h
  Relative DON-transformation activity: 96.0%
[2]; during 60 min in pH 6 at temperatures from 29.9° C. to 46.0° C.
  retained activity: more than 33%
[2]; 29.9° C., 0 min (starting activity set to 100%)
  Relative DON transformation activity: 100.00%
[2]; 29.9° C., 5 min
  Relative DON transformation activity: 121.5%
[2]; 29.9° C., 10 min
  Relative DON transformation activity: 114.8%
[2]; 29.9° C., 20 min
  Relative DON transformation activity: 118.9%
[2]; 29.9° C., 35 min
  Relative DON transformation activity: 106.2%
[2]; 29.9° C., 50 min
  Relative DON transformation activity: 70.1%
[2]; 29.9° C., 60 min
  Relative DON transformation activity: 53.7%
[2]; 35.3° C., 0 min (starting activity set to 100%)
  Relative DON transformation activity: 100.00%
[2]; 35.3° C., 5 min
  Relative DON transformation activity: 132.8%
[2]; 35.3° C., 10 min
  Relative DON transformation activity: 97.7%
[2]; 35.3° C., 20 min
  Relative DON transformation activity: 101.5%
[2]; 35.3° C., 35 min
  Relative DON transformation activity: 109.7%
[2]; 35.3° C., 50 min
  Relative DON transformation activity: 84.6%
[2]; 35.3° C., 60 min
  Relative DON transformation activity: 47.0%
[2]; 37.9° C., 0 min (starting activity set to 100%)
  Relative DON transformation activity: 100.00%
[2]; 37.9° C., 5 min
  Relative DON transformation activity: 130.1%
[2]; 37.9° C., 10 min
  Relative DON transformation activity: 101.4%
[2]; 37.9° C., 20 min
  Relative DON transformation activity: 110.1%
[2]; 37.9° C., 35 min
  Relative DON transformation activity: 109.0%
[2]; 37.9° C., 50 min
  Relative DON transformation activity: 77.0%
[2]; 37.9° C., 60 min
  Relative DON transformation activity: 48.6%
[2]; 40.7° C., 0 min (starting activity set to 100%)
  Relative DON transformation activity: 100.00%
[2]; 40.7° C., 5 min
  Relative DON transformation activity: 130.2%
[2]; 40.7° C., 10 min
  Relative DON transformation activity: 100.7%
[2]; 40.7° C., 20 min
  Relative DON transformation activity: 60.5%
[2]; 40.7° C., 35 min
  Relative DON transformation activity: 95.8%
[2]; 40.7° C., 50 min
  Relative DON transformation activity: 76.1%
[2]; 40.7° C., 60 min
  Relative DON transformation activity: 50.0%
[2]; 43.4° C., 0 min (starting activity set to 100%)
  Relative DON transformation activity: 100.00%
[2]; 43.4° C., 5 min
  Relative DON transformation activity: 133.6%
[2]; 43.4° C., 10 min
  Relative DON transformation activity: 111.3%
[2]; 43.4° C., 20 min
  Relative DON transformation activity: 79.1%
[2]; 43.4° C., 35 min
  Relative DON transformation activity: 75.2%
[2]; 43.4° C., 50 min
  Relative DON transformation activity: 60.2%
[2]; 43.4° C., 60 min
  Relative DON transformation activity: 52.9%
[2]; 46.0° C., 0 min (starting activity set to 100%)
  Relative DON transformation activity: 100.00%
[2]; 46.0° C., 5 min
  Relative DON transformation activity: 125.9%
[2]; 46.0° C., 10 min
  Relative DON transformation activity: 123.1%
[2]; 46.0° C., 20 min
  Relative DON transformation activity: 83.4%
[2]; 46.0° C., 35 min
  Relative DON transformation activity: 61.8%
[2]; 46.0° C., 50 min
  Relative DON transformation activity: 3.0%
[2]; 46.0° C., 60 min
  Relative DON transformation activity: 33.1%
[2]; 50.8° C., 0 min (starting activity set to 100%)
  Relative DON transformation activity: 100.00%
[2]; 50.8° C., 5 min
  Relative DON transformation activity: 118.6%
[2]; 50.8° C., 10 min
  Relative DON transformation activity: 44.2%
[2]; 50.8° C., 20 min
  Relative DON transformation activity: 16.3%
[2]; 50.8° C., 35 min
  Relative DON transformation activity: 4.9%
[2]; 50.8° C., 50 min
  Relative DON transformation activity: 7.5%
[2]; 50.8° C., 60 min
  Relative DON transformation activity: 0%
